Tests used:
[1] = test system: CLOCK bHLH-PAS-AB;BMAL1 bHLH-PAS-AB (mouse;mouse); assay: fluorescence anisotropy; conditions: not given in the material (Supplementary Methods not held)
[2] = test system: CLOCK bHLH-PAS-AB;BMAL1 bHLH-PAS-AB (mouse;mouse); assay: fluorescence anisotropy competition; conditions: not given in the material (Supplementary Methods not held)

Substance	Kd [1] [nM]	Kd [2] [nM]
mPer2 E2-box DNA, fluorescein labeled	59	
mPer2 E2-box DNA 18-mer, unlabeled		13
mPer1 E1-box DNA 18-mer, unlabeled		9
